We go through 1 substance from patent US20150299319A1.

In the experiment the target is KIR2DL1 on human NK cell clones (human) (UniProt P43626). As to the kind of experiment: cell-based or functional assay.

Bounds are passed on as bounds.

Chain of UniProt P43626 (P43626 22-348): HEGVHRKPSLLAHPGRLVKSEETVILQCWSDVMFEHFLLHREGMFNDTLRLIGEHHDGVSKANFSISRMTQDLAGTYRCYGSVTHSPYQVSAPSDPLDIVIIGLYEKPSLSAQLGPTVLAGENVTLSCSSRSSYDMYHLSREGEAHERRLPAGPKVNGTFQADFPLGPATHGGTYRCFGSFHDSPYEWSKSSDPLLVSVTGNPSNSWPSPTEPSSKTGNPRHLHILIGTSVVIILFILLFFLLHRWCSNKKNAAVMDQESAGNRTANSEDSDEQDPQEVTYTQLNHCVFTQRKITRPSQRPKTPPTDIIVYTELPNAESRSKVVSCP

“EB6 monoclonal antibody (IgG1, anti KIR2DL1)” yielded a lysis of autologous Cw4+ PHA blasts by NK cells with Campath greater than 30%.
